B1: H2-Kb / Ed23 (parent complex)
chain 1: QQKVQQSPESLTVSEGAMASLNCTFSDRSSDNFRWYRQHSGKGLEVLVSIFSDGEKEEGSFTAHLNRASLHVFLHIREPQPSDSALYLCAVRGFWTNKVVFGTGTRLQVLP
chain 2: AQTIHQWPVAEIKAVGSPLSLGCTIKGKSSPNLYWYWQATGGTLQQLFYSITVGQVESVVQLNLSASRPKDDQFILSTEKLLLSHSGFYLCAWSPRQSSYEQYFGPGTRLTVL
chain 3: not shown
chain 4: IQKTPQIQVYSRHPPENGKPNILNCYVTQFHPPHIEIQMLKNGKKIPKVEMSDMSFSKDWSFYILAHTEFTPTETDTYACRVKHDSMAEPKTVYWDRDM
chain 5: SIINFEKL

Variants of: B1
Experiment: % of reporter cells activated (NFAT-GFP), raw; note: test concentration or dose not given here

ratio to parent | Variant
1.27 | chain 5 S1E
0.348 | chain 5 S1M
0.454 | chain 5 S1L
1.61 | chain 5 S1Q
0.515 | chain 5 S1W
1.02 | chain 5 L8T
0.828 | chain 5 L8S
0.451 | chain 5 N4G
0.71 | chain 5 N4P
0.631 | chain 5 N4L
0.0702 | chain 5 N4Q
0.108 | chain 5 N4C

The remaining lines, values behind:

Variant | ratio to parent
chain 5 K7I | 0.142
chain 5 K7E | 0.0934
chain 5 K7Q | 0.132
chain 5 K7Y | 0.654
chain 5 K7D | 0.155
chain 5 F5L | 1.17
chain 5 F5Q | 1.41
chain 5 L8A | 0.692
chain 5 L8M | 0.785
chain 5 L8H | 1.25
chain 5 L8E | 0.833
chain 5 L8D | 0.909
chain 5 I2T | 1.47
chain 5 E6C | 0.0131
chain 5 I3E | 1.21
chain 5 I3T | 1.22
chain 5 I3H | 1.55
chain 5 I3P | 1.29
chain 5 I3C | 1.2
chain 5 I3N | 1.38
chain 5 I3M | 1.24
chain 5 I3F | 0.433

— PMC11480844 (2024)
